T1: human PMEL (Homo sapiens, UniProt P40967)
T1 sequence (P40967 25-661): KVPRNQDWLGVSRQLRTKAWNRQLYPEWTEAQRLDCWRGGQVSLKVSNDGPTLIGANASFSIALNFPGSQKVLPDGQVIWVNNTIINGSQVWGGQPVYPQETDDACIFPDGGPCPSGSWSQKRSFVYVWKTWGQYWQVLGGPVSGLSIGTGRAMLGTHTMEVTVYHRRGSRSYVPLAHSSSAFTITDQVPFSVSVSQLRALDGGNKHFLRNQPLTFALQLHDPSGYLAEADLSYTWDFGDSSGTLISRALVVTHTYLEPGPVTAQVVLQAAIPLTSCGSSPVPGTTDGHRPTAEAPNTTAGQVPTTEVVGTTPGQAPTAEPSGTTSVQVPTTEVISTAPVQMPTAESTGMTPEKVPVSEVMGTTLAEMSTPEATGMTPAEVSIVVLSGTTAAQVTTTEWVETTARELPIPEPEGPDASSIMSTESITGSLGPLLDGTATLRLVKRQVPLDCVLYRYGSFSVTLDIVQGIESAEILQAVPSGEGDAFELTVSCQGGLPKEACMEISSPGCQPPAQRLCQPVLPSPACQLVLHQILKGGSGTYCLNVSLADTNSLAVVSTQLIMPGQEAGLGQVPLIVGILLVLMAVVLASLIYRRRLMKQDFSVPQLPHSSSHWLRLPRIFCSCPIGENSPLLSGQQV

T2: mouse PMEL17 (Mus musculus, UniProt Q60696)
T2 construct: B16-F10 (mouse PMEL17 expressing melanoma); endogenous in cells; host or cells: B16-F10 (mouse melanoma)
T2 sequence (Q60696 24-626): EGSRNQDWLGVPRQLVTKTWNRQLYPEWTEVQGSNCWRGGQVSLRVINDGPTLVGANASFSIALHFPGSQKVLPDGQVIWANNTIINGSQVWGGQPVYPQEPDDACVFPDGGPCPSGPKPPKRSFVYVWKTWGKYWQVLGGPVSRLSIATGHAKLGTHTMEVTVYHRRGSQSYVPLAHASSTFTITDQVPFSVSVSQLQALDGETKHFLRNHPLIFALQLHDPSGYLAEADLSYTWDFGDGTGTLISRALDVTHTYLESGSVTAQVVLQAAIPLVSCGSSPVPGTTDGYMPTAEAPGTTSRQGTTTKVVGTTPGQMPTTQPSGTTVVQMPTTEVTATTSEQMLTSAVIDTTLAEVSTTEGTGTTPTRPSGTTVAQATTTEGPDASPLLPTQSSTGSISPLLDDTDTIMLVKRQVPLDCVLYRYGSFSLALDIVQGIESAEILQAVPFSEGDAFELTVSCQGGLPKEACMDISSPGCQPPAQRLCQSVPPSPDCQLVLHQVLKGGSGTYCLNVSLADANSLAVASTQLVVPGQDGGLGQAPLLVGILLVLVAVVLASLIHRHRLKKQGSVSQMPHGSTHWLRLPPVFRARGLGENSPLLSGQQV

T3: human PMEL17 (Homo sapiens, UniProt P40967)
T3 construct: G-361 melanoma cell line expresses human PMEL17 at a lower level compared to the HKB11-human PMEL17 overexpressing cell line; endogenous in cells; host or cells: G-361 (human melanoma)
T3 sequence (P40967 25-661): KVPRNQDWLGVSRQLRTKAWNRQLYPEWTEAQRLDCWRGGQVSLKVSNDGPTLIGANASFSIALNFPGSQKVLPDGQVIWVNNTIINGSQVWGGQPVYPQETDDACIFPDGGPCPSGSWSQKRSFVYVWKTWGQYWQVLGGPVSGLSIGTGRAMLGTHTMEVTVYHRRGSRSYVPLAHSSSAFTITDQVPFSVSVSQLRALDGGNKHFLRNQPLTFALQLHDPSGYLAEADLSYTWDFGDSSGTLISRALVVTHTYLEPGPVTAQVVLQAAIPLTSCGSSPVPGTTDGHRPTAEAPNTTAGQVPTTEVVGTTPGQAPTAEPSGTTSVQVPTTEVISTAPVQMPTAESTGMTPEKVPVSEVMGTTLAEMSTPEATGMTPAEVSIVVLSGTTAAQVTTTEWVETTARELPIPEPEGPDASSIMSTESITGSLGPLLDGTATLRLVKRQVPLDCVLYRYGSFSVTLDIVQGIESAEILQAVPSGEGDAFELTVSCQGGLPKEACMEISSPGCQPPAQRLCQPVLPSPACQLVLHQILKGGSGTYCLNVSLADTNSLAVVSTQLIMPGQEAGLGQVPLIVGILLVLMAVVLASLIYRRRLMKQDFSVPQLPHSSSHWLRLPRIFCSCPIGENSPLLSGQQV


How the values were obtained:
human PMEL = molecular target: T1, human PMEL; experiment: SPR epitope binning (competitive binding assay, Biacore T200); settings: FIG. 20B-20C
Description: SPR was used to assess epitope binning for anti-PMEL antibodies on a T200 Biacore instrument (catalog #28975001, GE Healthcare Life Sciences).
Surface Plasmon Resonance (SPR) is a technique to measure bimolecular interactions in real-time in a label free environment. Molecules are immobilized on a sensor surface over which a sample solution flows. The interaction between the immobilized molecule and the flowing sample causes a refractive index change. The refractive index change is an altering of the angle at which reduced intensity polarized light is reflected from the supporting glass plane. This angle change is caused by binding or dissociation of molecules from the sensor surface and is proportional to the mass of bound material and is recorded by the instrument in a sensorgram. […] From the association and dissociation event responses, an association rate (ka), a dissociation rate (kd) and an overall affinity (KD) are determined. For epitope binning, KDs are not determined.
In the first step, G1 LC 3J and 17A9 antibodies were directly immobilized onto a CM5 chip surface via Amine Coupling to achieve approximately 2000RU respectively on Fc2 and Fc3. […] The immobilized antibodies on Fc2 and Fc3 are the base antibodies in the experiment […]
The data was analyzed using the Biacore T200 Evaluation Software version 3.0.

UACC-62 = experiment: FACS titration of IgGs on UACC-62 cells; assay type: binding; settings: UACC-62, PE-labelled detection antibody
Procedure: (§1) Purified IgGs were titrated on a variety of PMEL17 expressing and PMEL17 non expressing cell lines (for control) to determine EC50 values. Cells were harvested using Accutase, adjusted to ˜4×10^6 cells/ml into FACS buffer (PBS, 3% FCS and 0.02% Na-Azide) and kept on ice to avoid internalization. 15 μl of cell suspension/well were transferred into 384 well V-bottom plates (Greiner, Cat #781280) and incubated with 15 μl of IgGs at different concentrations (most commonly from 200 to 3.5×10−3 nM) for 1 hour at 4° C., gently shaking. Following incubation, cells were washed three times with FACS buffer. After each washing step, cells were centrifuged (250×g, 5 min, 4° C.) and carefully resuspended. 15 μl of detection antibody conjugated to PE (PE-conjugated goat anti-human IgG, F(ab′)2 fragment specific, 1:150 in FACS buffer; Jackson Immuno Research, #109-116-097) or Alexa Fluor (Alexa Fluor-conjugated goat anti-human IgG, F(ab′)2 fragment specific, 1:150 in FACS buffer; Jackson Immuno Research, #109-606-097) were added and samples were incubated for 45 minutes to 1 hour on ice in the dark, gently shaking. After 3 washing steps, cells were resuspended in 30 μl of FACS buffer and samples were measured using the IntelliCyt HTFC device. EC50 values were calculated using the Graphpad Prism software. G-361 melanoma cell line expresses human PMEL17 at a lower level compared to the HKB11-human PMEL17 overexpressing cell line, and therefore allows a more precise ranking of the clones depending on their apparent affinity on cells.

rat PMEL17 = experiment: Apparent affinity by FACS titration of IgGs on HKB11-rat PMEL17 cells; assay type: binding; settings: Alexa Fluor
Procedure: Purified IgGs were titrated on a variety of PMEL17 expressing and PMEL17 non expressing cell lines (for control) to determine EC50 values. Cells were harvested using Accutase, adjusted to ˜4×10^6 cells/ml into FACS buffer (PBS, 3% FCS and 0.02% Na-Azide) and kept on ice to avoid internalization. 15 μl of cell suspension/well were transferred into 384 well V-bottom plates (Greiner, Cat #781280) and incubated with 15 μl of IgGs at different concentrations (most commonly from 200 to 3.5×10−3 nM) for 1 hour at 4° C., gently shaking. Following incubation, cells were washed three times with FACS buffer. After each washing step, cells were centrifuged (250×g, 5 min, 4° C.) and carefully resuspended. […] After 3 washing steps, cells were resuspended in 30 μl of FACS buffer and samples were measured using the IntelliCyt HTFC device. EC50 values were calculated using the Graphpad Prism software. […]
(§2) The cross-specificity of the IgGs was evaluated in does response FACS on G-361 (human melanoma), HKB11-cyno-PMEL17, HKB11-rat PMEL17 and B16-F10 (mouse PMEL17 expressing melanoma) (Table 3). […]

mouse PMEL17 = molecular target: T2, mouse PMEL17; experiment: Apparent affinity by FACS titration of IgGs on B16-F10 melanoma cells; assay type: binding; settings: Alexa Fluor
Procedure: as §1
(§3) The cross-specificity of the IgGs was evaluated in does response FACS on G-361 (human melanoma), HKB11-cyno-PMEL17, HKB11-rat PMEL17 and B16-F10 (mouse PMEL17 expressing melanoma) (Table 3). Testing on G-361 was performed using a detection antibody labelled to PE. In contrast, an Alexa-Fluor labelled detection antibody had to be used for testing the candidates on the other cell lines so as to reach detectable signals.

human PMEL17 = molecular target: T3, human PMEL17; experiment: Apparent affinity by FACS titration of IgGs on G-361 melanoma cell line; assay type: binding; settings: G-361, PE-labelled detection antibody; read-out: FACS EC50 (nM) G-361 (PE)
Procedure: as §1, §2

PMEL17 = experiment: Cross-reactivity (cross-specificity profile) of anti-PMEL17 IgGs in dose response FACS; assay type: binding; set-up: key: h/c/r/m: human/cyno/rat/mouse; h/c/r: human/cyno/rat; h/c/(m): human/cyno/mouse; h/c: human/cyno; settings: h human, c cyno, r rat, m mouse
Procedure: as §3
IgGs were classified into several epitope groups according to their cross-specificity profiles.

epitope binning (human PMEL) | EC50 (rat PMEL17) [nM] | EC50 (mouse PMEL17) [nM] | EC50 (human PMEL17) [nM] | Molecule | UACC-62 (PE) (UACC-62) | Cross spe profile (based on C14 detection ab) (PMEL17)
bind to different epitopes | – | – | – | G1 LC 3J: anti-PMEL antibody G1 with 3J light chain (antibody, V domains shown) VH: QVQLVQSGAEVKKPGSSVKVSCKASGGTFSDYAITWVRQAPGQGLEWMGGIIPIFGTANYAQKFQGRVTITADESTSTAYMELSSLRSEDTAVYYCAREGGLLTDISYSRYWFAYWGQGTLVTVSS VL: SYELTQPLSVSVALGQTARITCSGDALRDKFVYWYQQKPGQAPVLVIYDDNNRPSGIPERFSGSNSGNTATLTISRAQAGDEADYYCQSWDHSYSLVVFGGGTKLTVL | – | –
– | > 100 | > 100 | 2.8 | Y010417: anti-PMEL17 antibody (IgG) (antibody, V domains shown) VH: EVQLVQSGAEVKKPGESLKISCKGSGYSFTSYWIGWVRQMPGKGLEWMGIIYPGDSDTRYSPSFQGQVTISADKSISTAYLQWSSLKASDTAMYYCARGSSAASGLSGDLWGQGTLVTVSS VL: DIQMTQSPSSLSASVGDRVTITCRASQSISSYLNWYQQKPGKAPKLLIYAASSLQSGVPSRFSGSGSGTDFTLTISSLQPEDFATYYCQQDYYSPFTFGQGTKVEIK | Negative | h/c

From patent US11779649B2, “Antibodies to PMEL17 and conjugates thereof” (Novartis AG, priority 2018, dated 2023)
